Laboratory results as given in the supplement of paper PMC9112550, “Optimization of the antimicrobial peptide Bac7 by deep mutational scanning” (BMC Biology, 2022).

Test system: Escherichia coli TOP10
Test: shrunken log2 fold change of peptide-encoding DNA abundance (4.5 h post-induction vs induction); higher = less antimicrobial activity (less host growth inhibition)
Conditions: time post-induction: 4.5 h; library: site-saturation at positions 5, 18, 19, 20
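Also: peptides expressed intracellularly from a pBAD plasmid library in pooled LB shake-flask culture, induced with 0.3% L-arabinose, DNA abundance read by NGS, three biological replicates, DESeq2 with apeglm shrinkage.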

| Sequence | shrunken log2 fold change |
| --- | --- |
| RRIRGRPPRLPRPRPRPEIIPRP | 1.5 |
| RRIRLRPPRLPRPRPRPMVLPRP | -0.239 |
| RRIRVRPPRLPRPRPRPNQCPRP | -0.264 |
| RRIRPRPPRLPRPRPRPAHMPRP | -0.0534 |
| RRIRDRPPRLPRPRPRPAVIPRP | -0.0132 |
| RRIRMRPPRLPRPRPRPFREPRP | 0.2 |
| RRIRWRPPRLPRPRPRPKTRPRP | 0.654 |
| RRIRKRPPRLPRPRPRPIAPPRP | 0.718 |
| RRIRARPPRLPRPRPRPSEFPRP | 0.00109 |
| RRIRGRPPRLPRPRPRPHIPPRP | -0.101 |
| RRIRFRPPRLPRPRPRPQPFPRP | -0.0783 |
| RRIRTRPPRLPRPRPRPKIKPRP | -0.561 |
| RRIRTRPPRLPRPRPRPYKEPRP | -0.228 |
| RRIRERPPRLPRPRPRPLGVPRP | -0.171 |
| RRIRRRPPRLPRPRPRPWAEPRP | 2.36 |
| RRIRVRPPRLPRPRPRPINLPRP | -0.304 |
| RRIRERPPRLPRPRPRPWMHPRP | -0.126 |
| RRIRYRPPRLPRPRPRPANPPRP | -0.422 |
| RRIRERPPRLPRPRPRPENFPRP | -0.195 |
| RRIRWRPPRLPRPRPRPHVHPRP | -0.126 |
| RRIRERPPRLPRPRPRPQAGPRP | 0.275 |
| RRIRYRPPRLPRPRPRPQCGPRP | -0.46 |
| RRIRNRPPRLPRPRPRPPCKPRP | 0.0896 |
| RRIRKRPPRLPRPRPRPVCHPRP | 0.199 |
| RRIRCRPPRLPRPRPRPDWQPRP | -0.0213 |

| Sequence | shrunken log2 fold change |
| --- | --- |
| RRIRMRPPRLPRPRPRPELPPRP | 2.29 |
| RRIRMRPPRLPRPRPRPIHMPRP | -0.221 |
| RRIRYRPPRLPRPRPRPRHEPRP | -0.802 |
| RRIRTRPPRLPRPRPRPEVWPRP | 0.546 |
| RRIRDRPPRLPRPRPRPSTRPRP | 0.152 |
| RRIRQRPPRLPRPRPRPICHPRP | -0.14 |
| RRIRTRPPRLPRPRPRPWSSPRP | -0.241 |
| RRIRSRPPRLPRPRPRPIQLPRP | -0.238 |
| RRIRVRPPRLPRPRPRPLFNPRP | -0.465 |
| RRIRCRPPRLPRPRPRPPHNPRP | 0.919 |
| RRIRGRPPRLPRPRPRPTYEPRP | 0.318 |
| RRIRQRPPRLPRPRPRPKREPRP | 0.119 |
| RRIRHRPPRLPRPRPRPPFVPRP | 0.0135 |
| RRIRCRPPRLPRPRPRPYCGPRP | -0.888 |
| RRIRVRPPRLPRPRPRPYWAPRP | -0.0239 |
| RRIRCRPPRLPRPRPRPIIGPRP | -0.304 |
| RRIRCRPPRLPRPRPRPVGHPRP | 0.0304 |
| RRIRCRPPRLPRPRPRPNYSPRP | -0.522 |
| RRIRMRPPRLPRPRPRPQGCPRP | -0.00385 |
| RRIRFRPPRLPRPRPRPQLWPRP | 0.338 |
| RRIRNRPPRLPRPRPRPRQPPRP | 0.428 |
| RRIRKRPPRLPRPRPRPCWRPRP | 0.183 |
| RRIRVRPPRLPRPRPRPPFKPRP | 0.163 |
| RRIRMRPPRLPRPRPRPSACPRP | 1.99 |
| RRIRIRPPRLPRPRPRPFRNPRP | -0.902 |

| Sequence | shrunken log2 fold change |
| --- | --- |
| RRIRMRPPRLPRPRPRPHVAPRP | 0.00497 |
| RRIRHRPPRLPRPRPRPALDPRP | -0.103 |
| RRIRDRPPRLPRPRPRPDAQPRP | 1.21 |
| RRIRARPPRLPRPRPRPVHEPRP | 0.00256 |
| RRIRLRPPRLPRPRPRPMDSPRP | -0.172 |
| RRIRARPPRLPRPRPRPFTAPRP | -0.111 |
| RRIRSRPPRLPRPRPRPHYIPRP | -0.556 |
| RRIRFRPPRLPRPRPRPKLLPRP | 0.0539 |
| RRIRDRPPRLPRPRPRPPEPPRP | 0.84 |
| RRIRWRPPRLPRPRPRPGCCPRP | 0.659 |
| RRIRQRPPRLPRPRPRPNHVPRP | 0.0349 |
| RRIRHRPPRLPRPRPRPAMTPRP | -0.00367 |
| RRIRFRPPRLPRPRPRPFELPRP | -0.0457 |
| RRIRKRPPRLPRPRPRPEREPRP | 0.671 |
| RRIRRRPPRLPRPRPRPTYRPRP | 0.309 |
| RRIRARPPRLPRPRPRPLFRPRP | 0.881 |
| RRIRDRPPRLPRPRPRPLEHPRP | -0.164 |
| RRIRWRPPRLPRPRPRPFTHPRP | -0.297 |
| RRIRHRPPRLPRPRPRPVWGPRP | 0.479 |
| RRIRQRPPRLPRPRPRPIHLPRP | -0.137 |
| RRIRDRPPRLPRPRPRPSWMPRP | -0.166 |
| RRIRERPPRLPRPRPRPDIWPRP | -0.0258 |
| RRIRERPPRLPRPRPRPDRMPRP | -0.0498 |
| RRIRCRPPRLPRPRPRPLCDPRP | 0.54 |
| RRIRTRPPRLPRPRPRPICKPRP | -0.0914 |

| Sequence | shrunken log2 fold change |
| --- | --- |
| RRIRYRPPRLPRPRPRPSVLPRP | -0.444 |
| RRIRSRPPRLPRPRPRPATAPRP | 0.322 |
| RRIRQRPPRLPRPRPRPGCYPRP | -0.451 |
| RRIRGRPPRLPRPRPRPPYIPRP | -0.271 |
| RRIRDRPPRLPRPRPRPCPHPRP | -0.228 |
| RRIRMRPPRLPRPRPRPLFPPRP | 0.152 |
| RRIRDRPPRLPRPRPRPSEAPRP | 0.0437 |
| RRIRPRPPRLPRPRPRPWQGPRP | -0.00211 |
| RRIRLRPPRLPRPRPRPIYMPRP | -0.199 |
| RRIRQRPPRLPRPRPRPFYWPRP | -0.418 |
| RRIRFRPPRLPRPRPRPARGPRP | 0.624 |
| RRIRDRPPRLPRPRPRPHQDPRP | 0.00101 |
| RRIRGRPPRLPRPRPRPQGHPRP | 0.278 |
| RRIRQRPPRLPRPRPRPLGGPRP | -0.12 |
| RRIRMRPPRLPRPRPRPMHEPRP | 3.07 |
| RRIRCRPPRLPRPRPRPHVTPRP | -0.64 |
| RRIRWRPPRLPRPRPRPQERPRP | -0.0207 |
| RRIRKRPPRLPRPRPRPVRKPRP | 0.0395 |
| RRIRPRPPRLPRPRPRPCLRPRP | -0.183 |
| RRIRERPPRLPRPRPRPFNKPRP | -0.383 |
| RRIRGRPPRLPRPRPRPLEPPRP | 0.231 |
| RRIRERPPRLPRPRPRPRMFPRP | 0.00669 |
| RRIRIRPPRLPRPRPRPTYRPRP | -0.0791 |
| RRIRGRPPRLPRPRPRPKRCPRP | 0.788 |
| RRIRIRPPRLPRPRPRPFSVPRP | -0.248 |

| Sequence | shrunken log2 fold change |
| --- | --- |
| RRIRHRPPRLPRPRPRPYIFPRP | -0.446 |
| RRIRWRPPRLPRPRPRPWTLPRP | -0.0248 |
| RRIRCRPPRLPRPRPRPNWCPRP | -0.0555 |
| RRIRIRPPRLPRPRPRPIHSPRP | -0.302 |
| RRIRRRPPRLPRPRPRPQAEPRP | 0.0907 |
| RRIRVRPPRLPRPRPRPSGSPRP | -0.0176 |
| RRIRSRPPRLPRPRPRPSENPRP | -0.113 |
| RRIRERPPRLPRPRPRPYIAPRP | -0.946 |
| RRIRFRPPRLPRPRPRPTINPRP | -0.508 |
| RRIRDRPPRLPRPRPRPEDPPRP | 0.439 |
| RRIRMRPPRLPRPRPRPFSTPRP | -0.0159 |
| RRIRPRPPRLPRPRPRPQMEPRP | 0.0168 |
| RRIRWRPPRLPRPRPRPCWHPRP | -0.259 |
| RRIRCRPPRLPRPRPRPPRKPRP | 1.01 |
| RRIRFRPPRLPRPRPRPYKQPRP | -0.83 |
| RRIRHRPPRLPRPRPRPQDKPRP | -0.355 |
| RRIRWRPPRLPRPRPRPYSLPRP | -0.201 |
| RRIRLRPPRLPRPRPRPDSPPRP | -0.119 |
| RRIRCRPPRLPRPRPRPSMIPRP | -0.892 |
| RRIRSRPPRLPRPRPRPLPRPRP | 0.741 |
| RRIRPRPPRLPRPRPRPWCAPRP | 0.208 |
| RRIRKRPPRLPRPRPRPKTRPRP | 0.444 |
| RRIRRRPPRLPRPRPRPLVRPRP | 0.033 |
| RRIRARPPRLPRPRPRPPMRPRP | 1.26 |
| RRIRCRPPRLPRPRPRPGINPRP | -0.31 |

| Sequence | shrunken log2 fold change |
| --- | --- |
| RRIRHRPPRLPRPRPRPYQSPRP | 0.0306 |
| RRIRMRPPRLPRPRPRPSPHPRP | 0.18 |
| RRIRKRPPRLPRPRPRPNPLPRP | 0.0246 |
| RRIRARPPRLPRPRPRPYSAPRP | -0.256 |
| RRIRFRPPRLPRPRPRPTQFPRP | 0.153 |
| RRIRERPPRLPRPRPRPEPRPRP | 0.379 |
| RRIRPRPPRLPRPRPRPPLAPRP | 0.513 |
| RRIRTRPPRLPRPRPRPNWNPRP | -0.335 |
| RRIRGRPPRLPRPRPRPFIKPRP | -0.484 |
| RRIRSRPPRLPRPRPRPLCMPRP | -0.242 |
| RRIRNRPPRLPRPRPRPLVPPRP | -0.213 |
| RRIRRRPPRLPRPRPRPKNYPRP | -0.177 |
| RRIRCRPPRLPRPRPRPCCQPRP | -0.342 |
| RRIRFRPPRLPRPRPRPCMMPRP | -0.0025 |
| RRIRARPPRLPRPRPRPLRAPRP | 1.19 |
| RRIRNRPPRLPRPRPRPAVWPRP | 0.583 |
| RRIRFRPPRLPRPRPRPDGVPRP | -0.14 |
| RRIRARPPRLPRPRPRPKDQPRP | 0.504 |
| RRIRTRPPRLPRPRPRPAFWPRP | 0.26 |
| RRIRQRPPRLPRPRPRPKCVPRP | -0.018 |
| RRIRTRPPRLPRPRPRPSFDPRP | -0.365 |
| RRIRARPPRLPRPRPRPKWEPRP | 0.0262 |
| RRIRRRPPRLPRPRPRPMVTPRP | 0.247 |
| RRIRSRPPRLPRPRPRPSHQPRP | -0.284 |
| RRIRWRPPRLPRPRPRPCDQPRP | -0.0328 |
